# Reference: paper PMC3138243 (The Journal of Biological Chemistry, 2011)
# Like-named read-outs stand apart in the source and are kept apart here.
# T1: CRY1 (Mus musculus, UniProt P97784 1-606)
# T1 sequence: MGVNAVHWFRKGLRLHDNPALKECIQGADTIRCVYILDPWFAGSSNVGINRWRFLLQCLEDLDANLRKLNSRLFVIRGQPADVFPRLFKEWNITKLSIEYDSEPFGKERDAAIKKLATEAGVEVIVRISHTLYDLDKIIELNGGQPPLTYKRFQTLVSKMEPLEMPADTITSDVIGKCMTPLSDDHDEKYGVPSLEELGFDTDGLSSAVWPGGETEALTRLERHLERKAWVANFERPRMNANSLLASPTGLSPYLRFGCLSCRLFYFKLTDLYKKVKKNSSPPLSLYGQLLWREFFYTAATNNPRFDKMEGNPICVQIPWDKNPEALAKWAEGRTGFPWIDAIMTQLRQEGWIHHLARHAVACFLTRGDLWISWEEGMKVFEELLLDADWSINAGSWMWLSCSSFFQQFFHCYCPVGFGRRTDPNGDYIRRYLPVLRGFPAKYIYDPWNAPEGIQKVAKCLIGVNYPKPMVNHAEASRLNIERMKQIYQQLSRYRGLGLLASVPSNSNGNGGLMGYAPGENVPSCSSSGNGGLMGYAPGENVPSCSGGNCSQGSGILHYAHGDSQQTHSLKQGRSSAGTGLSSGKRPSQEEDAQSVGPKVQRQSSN
# Columns and labels:
# [1] = target: T2, CLOCK (co-expressed with BMAL1);BMAL1 (Mus musculus;Mus musculus, UniProt O08785;Q9WTL8 1-855;1-632, |); assay: EMSA
# T2 sequence (Q9WTL8 whole entry, one chain of several): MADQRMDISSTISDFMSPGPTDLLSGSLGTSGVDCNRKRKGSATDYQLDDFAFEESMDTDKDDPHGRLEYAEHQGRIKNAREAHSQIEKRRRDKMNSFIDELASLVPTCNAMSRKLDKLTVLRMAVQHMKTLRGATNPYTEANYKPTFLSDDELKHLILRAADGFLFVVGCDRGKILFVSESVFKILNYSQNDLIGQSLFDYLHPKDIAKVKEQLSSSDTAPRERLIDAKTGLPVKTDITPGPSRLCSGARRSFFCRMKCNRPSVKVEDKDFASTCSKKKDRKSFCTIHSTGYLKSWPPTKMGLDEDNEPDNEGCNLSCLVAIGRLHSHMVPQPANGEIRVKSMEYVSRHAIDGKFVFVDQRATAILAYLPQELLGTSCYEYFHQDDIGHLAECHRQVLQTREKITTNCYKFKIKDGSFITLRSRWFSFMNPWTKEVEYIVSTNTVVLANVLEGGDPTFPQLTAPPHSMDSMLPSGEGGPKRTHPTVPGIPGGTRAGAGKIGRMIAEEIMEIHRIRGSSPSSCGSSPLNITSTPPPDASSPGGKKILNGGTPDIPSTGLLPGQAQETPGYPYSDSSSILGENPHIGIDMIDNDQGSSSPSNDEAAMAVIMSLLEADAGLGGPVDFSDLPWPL
# [2] = target: T1, CRY1; assay: EMSA
# [3] = target: CLOCK (co-expressed with BMAL1);BMAL1;hCRY1 (Mus musculus;Mus musculus;Homo sapiens, UniProt O08785;Q9WTL8;Q16526 1-855;1-632;1-586, ||); assay: EMSA
# CLOCK (co-expressed with BMAL1);BMAL1;hCRY1, sequence (Q9WTL8 whole entry, one chain of several): as above
# [4] = target: BMAL1 (Mus musculus, UniProt Q9WTL8 1-632); assay: EMSA
# BMAL1, sequence (Q9WTL8 whole entry): as the sequence (Q9WTL8 whole entry, one chain of several) above
# [5] = target: CLOCK (co-expressed with BMAL1);BMAL1;CRY2 (Mus musculus;Mus musculus;Mus musculus, UniProt O08785;Q9WTL8;Q9R194 1-855;1-632;1-592, ||); assay: EMSA supershift
# CLOCK (co-expressed with BMAL1);BMAL1;CRY2, sequence (Q9WTL8 whole entry, one chain of several): as above
# [6] = target: T3, CLOCK (co-expressed with BMAL1);BMAL1;CRY1 (Mus musculus;Mus musculus;Mus musculus, UniProt O08785;Q9WTL8;P97784 1-855;1-632;1-606, ||); assay: EMSA supershift
# T3 sequence (Q9WTL8 whole entry, one chain of several): as above
# [7] = target: CLOCK:BMAL1 heterodimer (mouse, UniProt O08785;Q9WTL8); assay: native gel or EMSA
# CLOCK:BMAL1 heterodimer, sequence (Q9WTL8 whole entry, one chain of several): as above
# [8] = target: T2, CLOCK (co-expressed with BMAL1);BMAL1; assay: EMSA; remark: listed apart in the source
# [9] = target: T3, CLOCK (co-expressed with …); assay: EMSA supershift; remark: listed apart in the source
# [10] = target: PER2 (mouse, UniProt O54943 1-1257); assay: co-IP
# PER2, sequence (O54943 whole entry): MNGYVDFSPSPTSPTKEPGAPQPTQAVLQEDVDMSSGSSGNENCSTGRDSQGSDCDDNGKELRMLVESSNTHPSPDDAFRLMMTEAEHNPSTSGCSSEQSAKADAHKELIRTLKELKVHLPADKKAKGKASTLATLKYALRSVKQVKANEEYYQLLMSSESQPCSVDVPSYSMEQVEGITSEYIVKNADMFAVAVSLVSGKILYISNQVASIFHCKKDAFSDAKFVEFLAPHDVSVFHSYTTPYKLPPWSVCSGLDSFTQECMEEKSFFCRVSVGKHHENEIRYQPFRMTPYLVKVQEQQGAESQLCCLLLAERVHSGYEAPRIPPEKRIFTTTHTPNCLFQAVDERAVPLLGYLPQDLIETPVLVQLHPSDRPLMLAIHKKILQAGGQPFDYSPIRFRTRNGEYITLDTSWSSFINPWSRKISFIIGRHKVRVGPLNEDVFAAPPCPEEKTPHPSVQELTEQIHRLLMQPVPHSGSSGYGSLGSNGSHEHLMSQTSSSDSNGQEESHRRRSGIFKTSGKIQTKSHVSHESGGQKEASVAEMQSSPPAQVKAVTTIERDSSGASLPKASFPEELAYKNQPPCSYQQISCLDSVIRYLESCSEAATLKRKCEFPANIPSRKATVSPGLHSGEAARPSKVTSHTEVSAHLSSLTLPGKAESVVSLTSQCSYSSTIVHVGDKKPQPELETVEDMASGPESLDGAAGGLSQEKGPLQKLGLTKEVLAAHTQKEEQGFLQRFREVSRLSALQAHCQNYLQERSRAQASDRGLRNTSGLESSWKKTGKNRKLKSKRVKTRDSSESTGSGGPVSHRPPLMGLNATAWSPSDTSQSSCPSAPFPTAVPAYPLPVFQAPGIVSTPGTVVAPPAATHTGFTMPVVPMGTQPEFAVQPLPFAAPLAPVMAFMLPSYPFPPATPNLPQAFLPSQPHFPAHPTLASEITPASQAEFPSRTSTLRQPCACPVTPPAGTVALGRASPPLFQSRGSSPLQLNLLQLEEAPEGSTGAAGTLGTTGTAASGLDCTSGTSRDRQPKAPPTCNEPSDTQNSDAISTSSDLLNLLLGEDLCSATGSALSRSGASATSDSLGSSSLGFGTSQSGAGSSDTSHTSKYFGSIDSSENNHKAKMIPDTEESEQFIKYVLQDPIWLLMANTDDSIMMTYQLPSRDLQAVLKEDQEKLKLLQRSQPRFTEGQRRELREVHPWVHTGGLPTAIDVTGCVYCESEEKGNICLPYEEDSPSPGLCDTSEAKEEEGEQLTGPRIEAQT
binder,measurement,setting,value
M34 (dsDNA) DNA 1: GGGACACGTGACCC DNA 2: GGGTCACGTGTCCC,binding result,[1],binds
same,binding result,[2],no binding
same,binding result,[3],binds
same,binding result,[4],binds
same,binding result,[5],binds
same,binding result,[6],binds
CRY2 (natural protein) MAAAAVVAATVPAQSMGADGASSVHWFRKGLRLHDNPALLAAVRGARCVRCVYILDPWFAASSSVGINRWRFLLQSLEDLDTSLRKLNSRLFVVRGQPADVFPRLFKEWGVTRLTFEYDSEPFGKERDAAIMKMAKEAGVEVVTENSHTLYDLDRIIELNGQKPPLTYKRFQALISRMELPKKPAVAVSSQQMESCRAEIQENHDDTYGVPSLEELGFPTEGLGPAVWQGGETEALARLDKHLERKAWVANYERPRMNANSLLASPTGLSPYLRFGCLSCRLFYYRLWDLYKKVKRNSTPPLSLFGQLLWREFFYTAATNNPRFDRMEGNPICIQIPWDRNPEALAKWAEGKTGFPWIDAIMTQLRQEGWIHHLARHAVACFLTRGDLWVSWESGVRVFDELLLDADFSVNAGSWMWLSCSAFFQQFFHCYCPVGFGRRTDPSGDYIRRYLPKLKGFPSRYIYEPWNAPESVQKAAKCIIGVDYPRPIVNHAETSRLNIERMKQIYQQLSRYRGLCLLASVPSCVEDLSHPVAEPGSSQAGSISNTGPRALSSGPASPKRKLEAAEEPPGEELTKRARVTEMPTQEPASKDS,binding result,[7],binds
CRY1 (natural protein) MGVNAVHWFRKGLRLHDNPALKECIQGADTIRCVYILDPWFAGSSNVGINRWRFLLQCLEDLDANLRKLNSRLFVIRGQPADVFPRLFKEWNITKLSIEYDSEPFGKERDAAIKKLATEAGVEVIVRISHTLYDLDKIIELNGGQPPLTYKRFQTLVSKMEPLEMPADTITSDVIGKCMTPLSDDHDEKYGVPSLEELGFDTDGLSSAVWPGGETEALTRLERHLERKAWVANFERPRMNANSLLASPTGLSPYLRFGCLSCRLFYFKLTDLYKKVKKNSSPPLSLYGQLLWREFFYTAATNNPRFDKMEGNPICVQIPWDKNPEALAKWAEGRTGFPWIDAIMTQLRQEGWIHHLARHAVACFLTRGDLWISWEEGMKVFEELLLDADWSINAGSWMWLSCSSFFQQFFHCYCPVGFGRRTDPNGDYIRRYLPVLRGFPAKYIYDPWNAPEGIQKVAKCLIGVNYPKPMVNHAEASRLNIERMKQIYQQLSRYRGLGLLASVPSNSNGNGGLMGYAPGENVPSCSSSGNGGLMGYAPGENVPSCSGGNCSQGSGILHYAHGDSQQTHSLKQGRSSAGTGLSSGKRPSQEEDAQSVGPKVQRQSSN,binding result,[7],binds
Myc-CRY1 (natural protein) MGVNAVHWFRKGLRLHDNPALKECIQGADTIRCVYILDPWFAGSSNVGINRWRFLLQCLEDLDANLRKLNSRLFVIRGQPADVFPRLFKEWNITKLSIEYDSEPFGKERDAAIKKLATEAGVEVIVRISHTLYDLDKIIELNGGQPPLTYKRFQTLVSKMEPLEMPADTITSDVIGKCMTPLSDDHDEKYGVPSLEELGFDTDGLSSAVWPGGETEALTRLERHLERKAWVANFERPRMNANSLLASPTGLSPYLRFGCLSCRLFYFKLTDLYKKVKKNSSPPLSLYGQLLWREFFYTAATNNPRFDKMEGNPICVQIPWDKNPEALAKWAEGRTGFPWIDAIMTQLRQEGWIHHLARHAVACFLTRGDLWISWEEGMKVFEELLLDADWSINAGSWMWLSCSSFFQQFFHCYCPVGFGRRTDPNGDYIRRYLPVLRGFPAKYIYDPWNAPEGIQKVAKCLIGVNYPKPMVNHAEASRLNIERMKQIYQQLSRYRGLGLLASVPSNSNGNGGLMGYAPGENVPSCSSSGNGGLMGYAPGENVPSCSGGNCSQGSGILHYAHGDSQQTHSLKQGRSSAGTGLSSGKRPSQEEDAQSVGPKVQRQSSN,binding result,[7],binds
human CRY1 (natural protein) MGVNAVHWFRKGLRLHDNPALKECIQGADTIRCVYILDPWFAGSSNVGINRWRFLLQCLEDLDANLRKLNSRLFVIRGQPADVFPRLFKEWNITKLSIEYDSEPFGKERDAAIKKLATEAGVEVIVRISHTLYDLDKIIELNGGQPPLTYKRFQTLISKMEPLEIPVETITSEVIEKCTTPLSDDHDEKYGVPSLEELGFDTDGLSSAVWPGGETEALTRLERHLERKAWVANFERPRMNANSLLASPTGLSPYLRFGCLSCRLFYFKLTDLYKKVKKNSSPPLSLYGQLLWREFFYTAATNNPRFDKMEGNPICVQIPWDKNPEALAKWAEGRTGFPWIDAIMTQLRQEGWIHHLARHAVACFLTRGDLWISWEEGMKVFEELLLDADWSINAGSWMWLSCSSFFQQFFHCYCPVGFGRRTDPNGDYIRRYLPVLRGFPAKYIYDPWNAPEGIQKVAKCLIGVNYPKPMVNHAEASRLNIERMKQIYQQLSRYRGLGLLASVPSNPNGNGGFMGYSAENIPGCSSSGSCSQGSGILHYAHGDSQQTHLLKQGRSSMGTGLSGGKRPSQEEDTQSIGPKVQRQSTN,binding result,[7],binds
P2GS 60-bp duplex (dsDNA) DNA 1: CATCACCCACTCACCCCTTAACGACACGTGGGCCCTCAATTGCCCTTCTCTCAGGATCTG DNA 2: CAGATCCTGAGAGAAGGGCAATTGAGGGCCCACGTGTCGTTAAGGGGTGAGTGGGTGATG,binding result,[8],binds
same,binding result,[9],binds
CLOCK (natural protein) MVFTVSCSKMSSIVDRDDSSIFDGLVEEDDKDKAKRVSRNKSEKKRRDQFNVLIKELGSMLPGNARKMDKSTVLQKSIDFLRKHKETTAQSDASEIRQDWKPTFLSNEEFTQLMLEALDGFFLAIMTDGSIIYVSESVTSLLEHLPSDLVDQSIFNFIPEGEHSEVYKILSTHLLESDSLTPEYLKSKNQLEFCCHMLRGTIDPKEPSTYEYVRFIGNFKSLTSVSTSTHNGFEGTIQRTHRPSYEDRVCFVATVRLATPQFIKEMCTVEEPNEEFTSRHSLEWKFLFLDHRAPPIIGYLPFEVLGTSGYDYYHVDDLENLAKCHEHLMQYGKGKSCYYRFLTKGQQWIWLQTHYYITYHQWNSRPEFIVCTHTVVSYAEVRAERRRELGIEESLPETAADKSQDSGSDNRINTVSLKEALERFDHSPTPSASSRSSRKSSHTAVSDPSSTPTKIPTDTSTPPRQHLPAHEKMTQRRSSFSSQSINSQSVGPSLTQPAMSQAANLPIPQGMSQFQFSAQLGAMQHLKDQLEQRTRMIEANIHRQQEELRKIQEQLQMVHGQGLQMFLQQSNPGLNFGSVQLSSGNSNIQQLTPVNMQGQVVPANQVQSGHISTGQHMIQQQTLQSTSTQQSQQSVMSGHSQQTSLPSQTPSTLTAPLYNTMVISQPAAGSMVQIPSSMPQNSTQSATVTTFTQDRQIRFSQGQQLVTKLVTAPVACGAVMVPSTMLMGQVVTAYPTFATQQQQAQTLSVTQQQQQQQQQPPQQQQQQQQSSQEQQLPSVQQPAQAQLGQPPQQFLQTSRLLHGNPSTQLILSAAFPLQQSTFPPSHHQQHQPQQQQQLPRHRTDSLTDPSKVQPQ,binding result,[10],binds
